In the nanobody polyreactivity screen of Harvey et al. (2022):

Assay: yeast display, Sf9 membrane polyspecificity reagent, FACS + sequencing; frameworks hold sequencing errors
In short: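 Galactose induction of a Saccharomyces cerevisiae BJ5465 synthetic nanobody display library ran 36–48 hours. The cells were then stained for 1 hour at 4 °C with 10% biotinylated, detergent-solubilized Sf9 membrane reagent, pulled down on streptavidin microbeads and FACS-sorted into low and high (top ~1%) gates on expression and reagent-binding fluorescence. Labels for polyreactivity follow the gate of origin.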

Sequence | polyreactivity (PSR sort gate)
QVQLVESGGGLVQAGGSLRLSCAASGNTFVGYTMGWYRHAPGKERELVAAISWNGGTTYYADSVKGRFTISRDNAKNTVYLQMNSLKPEDTAVYYCNTRWYTRRFDYWGQGTQVTVSS | high polyreactivity
QVQLVESGGGLVQAGGSLRLSCAASGNTFVSNAMGWYRQAPGKERELVAAIDSGGSTNYADSVKGRFTISRDNAKNTVYLQMNRLKPEDTAVYYCNRTSVYYYYWGQGTQVTVSS | low polyreactivity
QVQLVESGGGLVQAGGSLRLSCAASGNTFWDNAMGWYRQAPGKERELVAAIRWSTASTHYADSVKGRFTISRDNAKNTVYFPMNSLKPEDTAVYYCAATDYYYYRDKYYGYDNWGQGTQVTVSS | low polyreactivity
QVQLVESGGGLVQAGGSLRLSCAASGNTFYANTMGWYRQARTERELVAAITSGTYADSVKGRFTISRDNAKNTVYLQMNSLKPEDTAVYYCAREESLYVTDPGPSKLDYWGQGTQVTVSS | low polyreactivity
QVQLVESGGGLVQAGGSLRLSCAASGNTFYGYAMGWYRQAPGKDRELVASITLSGDSTYYADSVKGRFTISRDNAKNTVYLQMNSLKQEDTAVYYCAGVYTYPLGYYHYTYDYWGQGTQVTVSS | low polyreactivity
QVQLVESGGGLVQAGGSLRLSCAASGNTFYGYAMGWYRQAPGKERVLVATIDSGGSTNYADSVKGRFTISRDNAKNTVYFQMNSLKPEDTAVYYCAADGVWYYNDMDYWGQGTQVTVSS | low polyreactivity
QVQLVESGGGLVQAGGSLRLSCAASGNTFYGYVMGWYRQAPGKERELVAAISWSGGRTYYADSVKGRFTISRDNAKNTVYLQMNSLKPEDTAVYYCAAVLLYYIYDYWGQGTQVTVSS | low polyreactivity
QVQLVESGGGLVQAGGSLRLSCAASGNTFYPNAMGWYRKAPGKERELVAAISSSGGSTYYADSVKGRFTISRDNAKNTVYLQMNSLKPEDTAVYYRAAEFDYPWSGEYYYWGQGTQVTVSS | high polyreactivity
QVQLVESGGGLVQAGGSLRLSCAASGNTFYWNAMGWYRQAPGKERELVAAITSSGGSTYYADSVKGRITISRDNAKNTVYLQMNSLKPEDTAVYYCNKDIERYVRIYDSWGQGTQVTVSS | low polyreactivity
QVQLVESGGGLVQAGGSLRLSCAASGNTFYYYAMGWYRQAPGKERELVAAIRRSGGTTYYADSVKGRFTISRDNAKNTVYLQMNSLKPEDTAVYYCAARVYRSYANVEGNYWGQGTQVTVSS | high polyreactivity
QVQLVESGGGLVQAGGSLRLSCAASGNTFYYYCMGWYRQAPGKERELVAAISSSGTSTYYADSVKGRFTISRDNAKNTVYLQMNSLKPEDTAVYYCARRTDRRTGPMYSWGQGTQVTVSS | high polyreactivity
QVQLVESGGGLVQAGGSLRLSCAASGNTIDSYAMGWYRQAPGKERELVAAISTSGGSTYYADSVKGRFTISRDNAKNTVYLQMNSLKPEDTAVYYCNATWTITYDYWGQGTQVTVSS | low polyreactivity
QVQLVESGGGLVQAGGSLRLSCAASGNTIIRYPMGWYRQAPGKERELVAAISYSGGRTYYADSVKGRFTISRDNAKNTVYLQMNSLKPEDTAVYYCNAASRYGGDYWGQGTQVTVSS | high polyreactivity
QVQLVESGGGLVQAGGSLRLSCAASGNTLDYYAMGWYRQAPGKEREVVEGIDDRTSTNYADSVKGRFTISRDNAKYTVYLQMNSLKPEDTAVYYCNADDGTVNYTSYYSPAVTYDSWGQGTQVTVSS | low polyreactivity
QVQLVESGGGLVQAGGSLRLSCAASGNTLGYYAMGWYRQAAGKARELVATICDDGTTYYADSVKGRFTISRDNAMNTVYLQMNSLSPEETAVYYCASVGSAQYSMDYWGDGTQVTVSS | low polyreactivity
QVQLVESGGGLVQAGGSLRLSCAASGNTLRYNVMGWYRQAPGKERELVAAISGGGSTSYTDSVKGRFTISRDNAKNTVYLQMNSLKPEDTAVYYCAKRSFVGGRGRDSDYWGQGTQVTVSS | low polyreactivity

Sequence | polyreactivity (PSR sort gate)
QVQLVESGGGLVQAGGSLRLSCAASGNTVDGNAMGWYRPAPGKERELVAAINYSGASTYYADSVKGRFTISRDNAKNTVYLQINSLKPEDTAVYYCAADDYTASDRYWHDYWGQGTQVTVSS | low polyreactivity
QVQLVESGGGLVQAGGSLRLSCAASGNTYLYYGMGWYRQSPGKERDLVAAITQSGGTTYYADSVKGRFTISRDNAKNTVYLQLNSLKQEDTAVYYCAATRYYYYWYVYDDRGDYWGQGTQVTVSS | low polyreactivity
QVQLVESGGGLVQAGGSLRLSCAASGPIFTSNAMGWYRQAPGKERELVAAISRRGTRTYYADSVKGRFTISRDNAKNTVYLQMNSLKPEDTAVYYCAAGWTTRYFGGVDYWGQGTQVTVSS | high polyreactivity
QVQLVESGGGLVQAGGSLRLSCAASGPIFVYYARGWYREAPGKEREFVAAISASGGSTYYADSVKGRFTISRDTAKNTVYLQMNSLKPEDPAVYYCAADRLRNRPRGLREYYWGQGTQVTVSS | low polyreactivity
QVQLVESGGGLVQAGGSLRLSCAASGPILGQYAMGGYRQAPGKERELVAAITYSGGRTYYADSVKGRFTISRDIAKNTVYLQMNSLKPEDTAVYYCAARGRASVERRGGYYYWGQGTQVTVSS | high polyreactivity
QVQLVESGGGLVQAGGSLRLSCAASGPTFAKNTMGWYRQAPGKERELVAAISWRGGRTYYADSVKGRFTISRDNAKNTVYLQMNSLKPEDTAVYYCAAASTIHRHGMDYWGQGTQVTVSS | high polyreactivity
QVQLVESGGGLVQAGGSLRLSCAASGPTFGGYTMGWYRQAPGKERELVAAITWSGGRTYYADSVKGRFTISRDNAKNTVYLQMNSLKPEDTAVYFCATSRSRERPLHNGPYYYWGLGTQVTVSS | high polyreactivity
QVQLVESGGGLVQAGGSLRLSCAASGPTFHGYDMGWNRQAPGKERELVARINWSDGRTYYADSVKGRFTISRDNAKNTVYLQMISLKPEDTAVYYCAADKTGSYAPAWYYYWGQGTQVTVSS | low polyreactivity
QVQLVESGGGLVQAGGSLRLSCAASGPTFRANAMGWYRQAPGKEREMVAAISQRGGNTYYADSVKGRFTISRDKAKNTVYLQMNSLKPEDTAVYYCSADITTYRRGRYEYEYWGQGTQVTVSS | high polyreactivity
QVQLVESGGGLVQAGGSLRLSCAASGPTFTYNAMGWYRQAPGKERELVATINSVDSTYADSVKGRFTISRDNAKNTVYLQMNSMKPEDTAVYYCNAGFPLSLWLGDYWGQGTQVTVSS | low polyreactivity
QVQLVESGGGLVQAGGSLRLSCAASGPTFYLYDTMGWYRQAPGKERELVAAISWDDGDTYYADSVKGRFTISRDNAKTTVYLQMNSLKPEDTAVYYCAAEYLSGAHGYWGQGTHVTVSS | low polyreactivity
QVQLVESGGGLVQAGGSLRLSCAASGPTFYYYAMGWYRQAPGKERELVAAITWSGGSTYYADSVKGRFTISRDNAKNTVYLQMNSLKPEDTAVYYCAADVTYSRYEYWGQGTQVTVSS | low polyreactivity
QVQLVESGGGLVQAGGSLRLSCAASGQTFDWYAMGWYRQAPGKERELVAAITSVGSTYYADSVKGRFTISRDNAKNSVYLQMNSLKPEDTAVYYCAVEGVIWSFWPYEYWGQGTQVTVSS | high polyreactivity
QVQLVESGGGLVQAGGSLRLSCAASGQTFYYYAMGWYRQAPGKERELVAAINSSGGITFYADSVKGRFTISRDNAKNTVYLQMNSLKPEDTAVYYCAAGGRSKRYVYWGQGTQVTVSS | low polyreactivity
QVQLVESGGGLVQAGGSLRLSCAASGRICTRYMGWYRQAPGKERELVATINWSGGSTYYADSVKGRFTISRDNAKNTVYLQMNSLKPEDTAVYYGNARNVDFYYVQYNGAKIFDYWGQGTQVTVSS | low polyreactivity
QVQLVESGGGLVQAGGSLRLSCAASGRICVINAMGWYRQAPGKERELVATIDRGGSTNYADSVKGRFSISRDNAKNTVYLQMNSLKPEDTAVYYCAAGVVGKRSRTGYYWGQGTQVTVSS | low polyreactivity
